Source: article PMC4902571
Values belong to the substance of their own block, whether it stands above or below them.

Legend:
[1] = molecular target: EGFR-EGFP with deletion of the dimerization arm, residues 242 to 259 (human) (UniProt P00533); assay: single-molecule stepwise photobleaching (TIRF microscopy); EGFP fusions on the membrane of live Xenopus oocytes, without EGF; ~1 to ~5 molecules per um^2; room temperature; 20 Hz; 3% two-step baseline (Claudin-16) subtracted
[2] = molecular target: Src13-GCN4-EGFRk: c-Src membrane localization sequence, coiled-coil segment of GCN4 joined to the N-terminus of the kinase domain of EGFR, EGFP or mCherry (UniProt P00533); assay: PIE-FCCS (pulsed-interleaved excitation fluorescence cross-correlation spectroscopy); control constructs with the c-Src membrane localization sequence, EGFP and mCherry fusions coexpressed; data collected previously on the same instrument and reproduced here; median fraction correlated fc
[3] = molecular target: Src13-GCN4: c-Src membrane localization sequence, coiled-coil segment of GCN4, EGFP or mCherry; assay: as above

- fraction of two-step photobleaching events (baseline subtracted) [1]: 9%
Substance: EGFR-EGFP with deletion of the dimerization arm, residues 242 to 259 (from UniProt P00533 25-1210) (receptor)

- fraction correlated fc (median) [2]: 0.23
Substance: Src13-GCN4-EGFRk: c-Src membrane localization sequence, coiled-coil segment of GCN4 joined to the N-terminus of the kinase domain of EGFR, EGFP or mCherry (from UniProt P00533 712-979)

- fraction correlated fc (median) [3]: 0.13
Substance: Src13-GCN4: c-Src membrane localization sequence, coiled-coil segment of GCN4, EGFP or mCherry
